# Results reported in the DeepSol protein solubility set.
# Assay: soluble on expression in E. coli; label from the status in PepcDB or PDB records
row,Sequence,soluble on expression in E. coli
1,MSLKGLTVGFLPKAVNNPYFTSADKGGEKALEELGSSYKEVGPSSATDTSGQVSYVNTLTQQQVDAMAVSAQDPGALCTALKQAMKNGIEVVTYDSDTKTGCRNAFVSQASAEDLGRTEVQLLAEQIGYKGEIAILSAAQTATNQNTWIGFMKDELKDPKYKNVKLVKVAYGNDDAQQSFQQTQGLLQEHPKLAGIISPTTVGIKAAAQYLSGSKYKGKVKLTGLGTPNDMRKYVKNGTVEGFELWDPAKLGELAARTAVALSSGQISGKEGETFKAGDMGSYTIGKDGEGHHHHHH,soluble
2,MGLADDAPLGYLLYRVGAVLRPEVSAALSPLGLTLPEFVCLRMLSQSPGLSSAELARHASVTPQAMNTVLRKLEDAGAVARPASVSSGRSLPATLTARGRALAKRAEAVVRAADARVLARLTAPQQREFKRMLEKLGSD,not soluble
3,MSLKTIAINQYGSADEFTMVDMPTTEPQADEVQVAIHAFSLNPMDIAGRMGALSSPFTDLWAFPLVLGWDFAGVITKMGKAVTGFNIGDAVFGSAAPAHAANNGTYGEFITVNTKELAHLPAGLSFDQAAALPIAGLTAYYGMKHNLKLQSGQKILVQGGAGGVGLFAIQIAKAFGAYVATTASANHRDLLTRLGADEVIDYHETDPAAVLHDYDAVFDTVGDIDTGLKVLKADGQLATIAGQPTDEQQHDQQKKVAFQFTQGSSQDLADLAQLVVSGQVKLTVATLPFSVANVIKGHRSIESRHTTGKIVIHVTEGHHHHHH,not soluble
4,MNGTGNTILVTGGTSGIGLGLALRLHKAGNKVIIAGRRKALLDKIVSEHPGIESVVLDVTDPHSIQHSSEALAISHPNLNVLINNAGIMHWEDLTDAKYLSTAENIVTTNLLGTIRMVYAFTPNLLKQPSATIVNVSSALAFVPLPATPTYSATKAAVHSFTQSLRVQLADSPVEVIELAPPGVRTTLLGQENDEHAMPLEAFLDEIFKLLDISPTPQELVVERAKPLRFAEANGSHGEVLKMLAGYKPPAE,not soluble
5,STGPVAPLPTPPNFPNDIALFQQAYQNWSKEIMLDATWVCSPKTPQDVVRLANWAHEHDYKIRPRGAMHGWTPLTVEKGANVEKVILADTMTHLNGITVNTGGPVATVTAGAGASIEAIVTELQKHDLGWANLPAPGVLSIGGALAVNAHGAALPAVGQTTLPGHTYGSLSNLVTELTAVVWNGTTYALETYQRNDPRITPLLTNLGRCFLTSVTMQAGPNFRQRCQSYTDIPWRELFAPKGADGRTFEKFVAESGGAEAIWYPFTEKPWMKVWTVSPTKPDSSNEVGSLGSAGSLVGKPPQAREVSGPYNYIFSDNLPEPITDMIGAINAGNPGIAPLFGPAMYEITKLGLAATNANDIWGWSKDVQFYIKATTLRLTEGGGAVVTSRANIATVINDFTEWFHERIEFYRAKGEFPLNGPVEIRCCGLDQAADVKVPSVGPPTISATRPRPDHPDWDVAIWLNVLGVPGTPGMFEFYREMEQWMRSHYNNDDATFRPEWSKGWAFGPDPYTDNDIVTNKMRATYIEGVPTTENWDTARARYNQIDPHRVFTNGFMDKLLP,soluble
6,MSLGEVCEIMQAYGGVSIVNALPSWYGSSMAINLKVKVEIREGKRVYSQESELIKTILNYFKEKYSIPDIEVDIESELPQKSGLKSSSAVSVALIAEIAKQYDLRNINPPILSAILSLKAGVSYTGALDDAVASYCGGIAFTYNKMFRIVKLENLEDNLSILILAKGGRQKPVNLNELRKYSHVFEEIFKIALKDYLTAMKMNGILIANILGYSLEPIEIALKKGALAAGISGNGPSYFAVSKNGEEGPIYESLKKFGDVIIVRPVSLDCKDLSIKEGHHHHHH,not soluble
7,MAKKKDEITIRSSAAEYLTYVASVGDQQDSIEMRYEDENIWLTQKMMATLYDVDVRTINEHIKKIYSDSELEEDSTIRNFRIVQTEGSRQVTRDTKHYNLQMIIAVGFKVNSERAVQFRKWVNQIAKDYTIKGWVMDDERLKRGTYLTEKYFDEQLERIREIRASERKFYQKITDLYATAIDYDKNAAMTRRFYSTVQNKMHYAVHGHTAAELIVERADHTKEHMGLTTWEDAPEGKIKKSDVTVAKNYLSQDEMKQLNRMVTAYLDFAENMTLRHIPLTMQDWEKRLNSFIEMFDYGILQDAGKVSAEIAKLHAETEFEKYRVIQDRLFMSDFDKFMLELEENTKK,not soluble
8,MAHHHHHHMSSETPRASTHDVFCAALQMLGGAQIFAQPLIQRTAVASLSPRSRNGNQASAVIAESATSRDAGTNHLPDPGIDVDAKPVDKPCCRGEQPCERTGTAPVKAMVTLCDPPARCEGVLAAQNAQRRLHHLRFFGGRFFLADGVTASESQQTSGYASTATSNAHVSDDCSSTWELKASYFQAMKETLTAVMGRRLRSQLLCDDSTADTGTVLRAPVPRGATGASTMTTSARQAALRRRMEAFTSAVVHQESILDAVAAACRARLNTVGGATAAPTPCFFFSALPQISVRQWAGSHLYKHWLVRCGTPRASLPSTATNPQKSGPHGAPMLTSPSAPRAPATALVLPLDVEAELRKYWKLHDEAAARARLEALRCNDAQAFAEHVSLLKVSALLEIMEKTEGFMRRIGLRLQFHATQAAANRGGDGARAVPTTRAAPAALAEPGIADRPGGAAGCHGSEYERFRSYVASTKNEFKLMHRVDVFVAAQPAGLDATLLPHQMDGLRFLASLDANHINGILADEMGVGKTIQTLAFLLYLKNRRGETGETGEGSGGRVAPPRVGSRLPHLVLAPLSVVREWREACEQFVPSALHVAMYQELADPVHEAAAYDLVLLPVHAIRYVGAEAARIQWHYIVVDEAHKAVANLSTITAQRILRPLVFAPPGADWNAAQQRLAGALVAAALSESGGVHRQ,not soluble
9,MGSDKIHHHHHHMTPDEVLRIASMHAVRGEYETALSLLRQLHAFIPDDIQVMRALGIVLANSGDHEAALPFLHQVAQRQCTPDNVMGLIKVLGAMRRFPDIDHVCSVVWPHIGDELAFLGEWGYANLLMERFDRALEILGKALALDPHFRPALHNGASALVRSGRGEEAVSMYSRLGRAWASTEAVARDFVGEYAALSQSYDDNPLHHYFSARLVRLVQDARPEAMPDSVLELGCGSGLLSQALPQKPDRLVGIDISPDMLARARTRGAYSSLLCGDLVEVMAGLEEPFDAVMSAGVLCYLPDLRKVFANVARLLSPGGVFAFSVDPVGDDMEIAEMEPGEFAHSRPYLRALAAETGLTEIRIDIDLHRGAPGFWCSFGKAG,not soluble
10,MRILFIGDVVGSPGRDMVKEYVPKLKTKYKPHFTIINGENAAHGKGLTEKIYHSLIQSGADAITMGNHTWDKKEIFDFIDDVPNLVRPANFPEGTPGKGITYVKANGKELAVINLQGRTFLPPLDDPFLKADELSPEAAKRTPYIFIDFHAEATSEKLALGWYTDGRASAVVGTHTHVQTADNRILPKGTAYITDVGMTGPYDGILGMDRETIIKRFKTNLPVRFTVAEGKTTLSGVVIDIDDQTKKAVKIERILINDDHMFFE,soluble
11,MGSDKIHHHHHHMDKLMKICPTREIELQQKAKQLYEEEENRKIAYNAGLVEAEGYCQYTRLKEIIEFAKKCGYKKIGIAFCIGLKREMQTVQKIFEHHGFEVFSVICKNGAMPKSTIGLEASQTISKCSDEVMCNPIGQALFLNEAKVDLNVILGLCVGHDTLAMKYMEAPITTLVVKDRVTGHNPVAAIYNAESYFEKKLFDKDEE,not soluble
12,MSLKYGGIIMKEILVIAPTKGTYEKSIHIVKKNKYKTIDVVFGNLKEGIPLAEKSINHGTRIIISRGGTYNMLKATYNIPIVEIKVDAYDIIKSYKEVKNSNEPFGIIGFNNVIYGFDIIEEILNKKITMIEIEKEEEIYDAIEKYRKKGINTYIGDTTVAHIVKRLNCKGILIESREENILRAIQQAEQILEATKDEQKRRLQIEAMTDFVHDGIITVDKNFKITLFNKSAEKIFGIKKENALYHNVVDVIPNTVLPQVVETMEPQIGEIQNIGSTKIITNRVPIIVDGQIQGAVSTFQDSKEISSFEHTIRRSLLSKGLSAEGHHHHHH,soluble
13,MSLKIKICGLSTKEAVDTAVESGVTHLGFILSPSKRQVAPEKILQITNDVPKTVKKVGVFVDEPIDFVKKAIQVAQLDLVQLHGNEDMNYINQLDISVIKAIRPDQEFKEYEDVILLFDSPQAGSGQAFDWDSLVTSGLKNKFFIAGGLNPENVAAAIQHFPNAYGVDVSSGVETDGIKNLTKIKNFVQNASLASSKQLFIEFLRITKKLNENKIIPYLMGSLAVEQIINFPTNPDDIDIQLKTSDFENFEQLTSLMEKLGYQLIDLHEHKFEKASIHVGFASVETLKNYAGVDYLTIQQERMENGEKYHLPNVEQSLKIYEAAKRDEWRGGKQKDSFIFDELIKEQKRNDNEGHHHHHH,soluble
14,MGSDKIHHHHHHMKIVKISPRGYCYGVVDAMVIARNAALDTSLPRPIYILGMIVHNKHVTDAFEEDGIITLDGPSRLDILDKIDSGTVIFTAHGVSPEVKQRAKEKGLTTIDATCPDVTKTHDLIEAKKAEGYHVIYIGKKNHPEPEGAVGIAPDIVHLIERADDLKTLEIPTDKILVTNQTTMSQWDVQHLMEDIQKKFPTAEFHKEICLATQVRQEAVAKQADVADLTIVVGDPKSNNSNRLAQVSQEIAGTKAYRVADVSEIKLEWLQGVENVAVTAGASTPTPITKEVIAFLEQYDPMNPATWERVRKVPLQKILPRVKVKKEQ,not soluble
15,MSSRKQGSQPRGQQSAEEENFKKPTRSNMQRSKMRGASSGKKTAGPQQKNLEPALPGRWGGRSAENPPSGSVRKTRKNKQKTPGNGDGGSTSEAPQPPRKKRARADPTVESEEAFKNRMEVKVKIPEELKPWLVEDWDLVTRQKQLFQLPAKKNVDAILEEYANCKKSQGNVDNKEYAVNEVVAGIKEYFNVMLGTQLLYKFERPQYAEILLAHPDAPMSQVYGAPHLLRLFVRIGAMLAYTPLDEKSLALLLGYLHDFLKYLAKNSASLFTASDYKVASAEYHRKALLEHHHHHH,not soluble
16,MPKKVLIFCDPGIDDTMALLLAFFIDEIEIVGIVADYGNVPKKMAVENAHFFNNETKNRNIKIFGGSERPLTGAPPAFFTDVHGKQGLGPIIPKVNVTNGEMENFFEVIPLIEQYKDELIIVSLGRLTSLAILFIMCKQLMKQIKSYYVMGGAFLHPGNVTPISEANFYGDPTAANIVLQSTANMYIYPLNVTQYSIITPEMAEYIEAKGKAPLVKTLFDHYYYGYYKDALPHLKGSPFHDTIPILALLDNSMFTYHKSPIVVMTESYAQGASIGEFRSLGESKPFIDWPSHQIAIDFDYNRFFKHFMSLMTGEQF,not soluble
17,MSRFFHAKEDSDSDTSSSEDEVEDQKVNKSAKFRDDLDFMAGPEEDEKRVVRAQKDKKFDELKGIIKQNRDAKSNKDLNRLLTGFDSLAKAYDKSKTVFQRQNVANPRFYIRSLVEIEDYVNKLWDDKDAKSALSKNNAKALPPLRQKLKKYIKDQQLQDLVTDYRVNPDEDGYETPEDEDDDDFGEVSESKAEKSPGKPSEKAAVSDSDSDSDDDDSSNWSSEPESNSSDDEDSVTKMEQLRRYFLKKEFRVESKDDKKEKKKRVIRVKEAVEEDDDADWTPVNREKSVVHFDPKEEVTHDVMIKKLNEVMSARGKRTTDRNQHVANLRKLLEVSEEKELGLGINVKISFCIISALFELNAKISDHMEYETFMTTLQTVNSLLDLLIGTDRVKLSVTYAEEDENLKDDTQEYRIQGSILIAVQRLDGELAKILQNADCHSNDYIEKLKAEKDMCSLIEKAEKYVELRNDSGIFDKHEVCKVYMMRIEHAYYKYQDQNEEDAGKLMDYLCNKIYTLDDEKRLRQRAMLCHVYYLAVHDKWHRARDLLLMSHMQAIVDHSDVDTQILYNRTICQLGLCAFRHGFIREAHQGLSEIQNTQRAKELLAQAVGTRQHEKTAEQEKIDRSRQVPYHMHINVELMECVYLICSMLLEIPHMASCEFEMRRRMLSRSFHYQLKQSEKASLTGPPENTREHVVAASKAMLNGDWKKCQDYIVNDKMNQKVWNLFHNAETVKGMVVRRIQEESLRTYLLTYSTVYATVSLKKLADLFELSKKDVHSIISKMIIQEELSATLDEPTDCLIMHRVEPSRLQMLALNLSDKLQTLAENNEQILEPRTGRGGYQGPGSWFPGRNERQGDKQKGSGGYQGERRGGQGQDGKRGNWGSQGGQQRRHPQKPRAF,not soluble
